Source: patent publication US20060008878A1 (UNIVERSITY OF CHICAGO, published 2006)

Target: the molecule itself
Assay: nondenaturing SDS-PAGE or size exclusion chromatography (self-association)
Description: For nondenaturing SDS-PAGE, one μg of each purified DsRed variant or wild-type DsRed was mixed with SDS-containing sample buffer on ice and immediately electrophoresed at 4° C. in a 10% polyacrylamide gel, followed by staining with Coomassie Blue. Additional aliquots of wild-type DsRed and DsRed variants were denatured by boiling prior to electrophoresis.

B1: DsRed.M1 (other)
chain: MDNTEDVIKEFMQFKVRMEGSVNGHYFEIEGEGEGKPYEGTQTAKLQVTKGGPLPFAWDILSPQFQYGSKAYVKHPADIPDYMKLSFPEGFTWERSMNFEDGGVVEVQQDSSLQDGTFIYKVKFKGVNFPADGPVMQKKTAGWEPSTEKLYPQDGVLKGEISHALKLKDGGHYTCDFKTVYKAKKPVQLPGNHYVDSKLDITNHNEDYTVVEQYEHAEARHSGSQ
notes: Purified protein tested for its oligomeric state; also called monomeric DsRed variant; red fluorescent DsRed monomer
B1: no binding.
